We go through two molecules from patent US20250195647A1 (CORBUS PHARMACEUTICALS, published 2025).

A value given as a limit tells only on which side of the number the result lay.

The target of one test is T1, integrin αVβ8 (human) (human, UniProt P06756 31-992; P26012 43-684).
T1 construct: Integrin heterodimer injected as analyte in SPR; also called avb8
Nature of the test: SPR, mAb captured on anti-Fc CM5 chip, integrin injected, 37 C, 1:1 fit. The procedure: (§1) Antibodies were assessed by surface plasmon resonance (SPR) for the ability to bind to integrin heterodimers. mAbs were immobilized on an anti-Fc CM5 sensor chip, and integrins (0.39-50 nM for and 200 nM for others) were injected at a flow rate of […] for a contact time of 180 s and dissociation time of 400 s, at 37° C. Data were fit (grey lines) to a 1:1 antibody:ligand binding model to determine Kd.

The target in a further test is T2, integrin αVβ8 (murine) (murine, UniProt P43406 31-988; Q0VBD0 43-681).
T2 construct: Integrin heterodimer injected as analyte in SPR; also called mαVβ8
T2 sequence (P43406 31-988, chain 1 of 2): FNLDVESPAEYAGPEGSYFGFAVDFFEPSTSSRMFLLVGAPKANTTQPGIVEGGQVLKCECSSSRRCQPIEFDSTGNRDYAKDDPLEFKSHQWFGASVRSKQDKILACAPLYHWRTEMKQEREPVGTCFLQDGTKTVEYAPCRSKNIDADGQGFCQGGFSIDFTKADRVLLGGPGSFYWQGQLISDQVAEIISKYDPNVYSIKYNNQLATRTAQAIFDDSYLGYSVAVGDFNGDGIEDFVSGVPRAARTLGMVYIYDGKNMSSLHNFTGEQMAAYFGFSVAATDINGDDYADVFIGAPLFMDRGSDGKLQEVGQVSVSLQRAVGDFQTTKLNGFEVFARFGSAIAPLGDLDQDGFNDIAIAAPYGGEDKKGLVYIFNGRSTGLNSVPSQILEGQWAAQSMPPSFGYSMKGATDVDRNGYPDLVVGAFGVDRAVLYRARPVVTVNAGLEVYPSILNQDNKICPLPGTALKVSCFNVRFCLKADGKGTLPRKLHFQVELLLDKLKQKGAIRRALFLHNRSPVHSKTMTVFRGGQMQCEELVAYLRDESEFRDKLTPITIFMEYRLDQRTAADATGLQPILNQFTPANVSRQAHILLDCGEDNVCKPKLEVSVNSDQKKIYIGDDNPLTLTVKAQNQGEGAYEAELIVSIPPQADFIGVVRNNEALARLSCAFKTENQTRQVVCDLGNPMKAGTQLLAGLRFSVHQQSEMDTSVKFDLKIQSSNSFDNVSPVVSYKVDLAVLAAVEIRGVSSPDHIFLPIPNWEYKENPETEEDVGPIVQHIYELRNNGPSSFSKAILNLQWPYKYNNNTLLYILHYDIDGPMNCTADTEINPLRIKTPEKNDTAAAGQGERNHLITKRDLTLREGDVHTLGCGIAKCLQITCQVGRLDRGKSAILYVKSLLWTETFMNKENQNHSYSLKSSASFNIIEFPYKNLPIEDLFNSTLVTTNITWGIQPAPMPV
T2 sequence (Q0VBD0 43-681, chain 2 of 2): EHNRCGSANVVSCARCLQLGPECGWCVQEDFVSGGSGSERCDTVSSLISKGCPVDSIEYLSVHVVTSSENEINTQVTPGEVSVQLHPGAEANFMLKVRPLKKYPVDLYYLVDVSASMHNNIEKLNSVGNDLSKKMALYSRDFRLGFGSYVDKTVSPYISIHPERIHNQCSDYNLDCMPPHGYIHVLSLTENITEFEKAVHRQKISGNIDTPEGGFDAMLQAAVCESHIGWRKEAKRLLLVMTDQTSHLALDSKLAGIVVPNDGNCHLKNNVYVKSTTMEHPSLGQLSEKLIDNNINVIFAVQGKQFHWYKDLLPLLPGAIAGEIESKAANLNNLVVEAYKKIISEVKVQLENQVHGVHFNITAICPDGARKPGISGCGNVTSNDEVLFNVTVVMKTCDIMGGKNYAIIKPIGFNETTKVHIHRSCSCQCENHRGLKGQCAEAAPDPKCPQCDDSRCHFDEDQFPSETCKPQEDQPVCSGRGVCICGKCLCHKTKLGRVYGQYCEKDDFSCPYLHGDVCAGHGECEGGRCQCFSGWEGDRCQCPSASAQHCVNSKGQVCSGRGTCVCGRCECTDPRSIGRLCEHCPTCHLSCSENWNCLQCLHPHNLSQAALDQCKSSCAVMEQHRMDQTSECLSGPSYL
The description is as above. The procedure:
as §1

In test [1] the target is T3, αvβ8 expressed on the surface of LN229 cells (UniProt P06756 31-1048; P26012 43-769).
T3 construct: whole, on cells; also called avb8 on LN229 cells
T3 sequence (P06756 31-1048, chain 1 of 2): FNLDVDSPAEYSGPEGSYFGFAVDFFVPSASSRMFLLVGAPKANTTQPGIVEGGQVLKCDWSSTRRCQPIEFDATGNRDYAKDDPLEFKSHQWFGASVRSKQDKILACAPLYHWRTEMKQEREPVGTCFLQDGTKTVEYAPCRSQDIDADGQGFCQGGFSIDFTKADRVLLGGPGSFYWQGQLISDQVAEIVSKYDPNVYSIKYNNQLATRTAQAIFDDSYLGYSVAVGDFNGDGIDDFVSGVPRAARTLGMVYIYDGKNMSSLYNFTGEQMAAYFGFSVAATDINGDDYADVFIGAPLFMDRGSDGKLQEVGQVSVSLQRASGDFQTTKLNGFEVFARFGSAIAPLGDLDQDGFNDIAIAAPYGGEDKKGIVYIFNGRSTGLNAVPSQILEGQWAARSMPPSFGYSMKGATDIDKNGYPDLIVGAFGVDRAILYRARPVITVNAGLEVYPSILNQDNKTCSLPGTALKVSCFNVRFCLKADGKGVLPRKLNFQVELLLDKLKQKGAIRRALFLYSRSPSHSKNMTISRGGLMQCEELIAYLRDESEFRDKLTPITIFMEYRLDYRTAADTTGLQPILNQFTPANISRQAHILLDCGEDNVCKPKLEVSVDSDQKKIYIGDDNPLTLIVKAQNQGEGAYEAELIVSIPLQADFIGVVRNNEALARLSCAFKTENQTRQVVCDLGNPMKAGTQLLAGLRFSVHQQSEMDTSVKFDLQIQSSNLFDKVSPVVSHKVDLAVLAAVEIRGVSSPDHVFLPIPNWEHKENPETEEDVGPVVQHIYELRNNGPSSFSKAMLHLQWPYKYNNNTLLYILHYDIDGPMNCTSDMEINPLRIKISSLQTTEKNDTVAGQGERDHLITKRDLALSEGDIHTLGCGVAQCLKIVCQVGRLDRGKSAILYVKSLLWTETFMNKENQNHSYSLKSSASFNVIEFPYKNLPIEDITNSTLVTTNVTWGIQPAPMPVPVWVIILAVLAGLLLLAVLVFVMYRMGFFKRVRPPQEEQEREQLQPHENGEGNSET
T3 sequence (P26012 43-769, chain 2 of 2): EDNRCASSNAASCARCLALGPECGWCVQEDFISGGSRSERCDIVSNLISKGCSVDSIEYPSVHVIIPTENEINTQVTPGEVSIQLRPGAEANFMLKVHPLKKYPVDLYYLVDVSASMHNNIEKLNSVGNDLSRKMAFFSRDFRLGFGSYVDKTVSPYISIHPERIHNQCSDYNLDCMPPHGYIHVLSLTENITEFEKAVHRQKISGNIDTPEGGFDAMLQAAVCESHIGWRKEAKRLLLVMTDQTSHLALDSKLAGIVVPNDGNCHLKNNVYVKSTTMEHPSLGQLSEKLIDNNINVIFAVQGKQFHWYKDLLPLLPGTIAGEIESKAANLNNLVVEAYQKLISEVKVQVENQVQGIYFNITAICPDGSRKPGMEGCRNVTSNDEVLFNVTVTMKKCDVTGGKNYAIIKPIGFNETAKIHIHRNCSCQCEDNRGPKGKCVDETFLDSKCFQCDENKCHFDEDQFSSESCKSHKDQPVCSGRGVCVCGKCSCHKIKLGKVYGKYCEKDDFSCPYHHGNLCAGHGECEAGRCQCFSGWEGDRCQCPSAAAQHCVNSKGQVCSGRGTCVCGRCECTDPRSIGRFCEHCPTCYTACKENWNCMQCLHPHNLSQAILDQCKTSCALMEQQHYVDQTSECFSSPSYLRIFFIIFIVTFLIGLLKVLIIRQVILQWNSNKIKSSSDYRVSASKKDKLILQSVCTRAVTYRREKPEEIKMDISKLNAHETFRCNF
Nature of the test: cell-based competition (adhesion) assay: LN229 cells expressing αvβ8 on plate-immobilized L-TGFβ, Crystal Violet readout. The procedure:
(§2) Exemplary antibodies of the disclosure were evaluated for their ability to block binding of the latent form of TGFβ (L-TGFβ) to in a cell-based competition assay. TGFβ is ubiquitously expressed in the latent form and L-TGFβ promotes an immune suppressive phenotype within the tumor microenvironment. L-TGFβ was immobilized on a polystyrene plate and incubated with LN229 cells expressing and increasing concentrations of muAb1 for 30 mins at 37° C. Bound LN229 cells were quantified by Crystal Violet. Data were fit to a 4-parameter displacement curve to determine IC₅₀. […] The affinities of the two antibodies are similar as measured in this assay.

In test [2] the target is T3, αvβ8 expressed on the surface of LN229 …. Nature of the test: cell-based competition (adhesion) assay: LN229 cells expressing αvβ8 on plate-immobilized L-TGFβ with increasing antibody, bound cells quantified by Crystal Violet, 4-parameter fit. The procedure: as §2

T1 sequence (P06756 31-992, chain 1 of 2): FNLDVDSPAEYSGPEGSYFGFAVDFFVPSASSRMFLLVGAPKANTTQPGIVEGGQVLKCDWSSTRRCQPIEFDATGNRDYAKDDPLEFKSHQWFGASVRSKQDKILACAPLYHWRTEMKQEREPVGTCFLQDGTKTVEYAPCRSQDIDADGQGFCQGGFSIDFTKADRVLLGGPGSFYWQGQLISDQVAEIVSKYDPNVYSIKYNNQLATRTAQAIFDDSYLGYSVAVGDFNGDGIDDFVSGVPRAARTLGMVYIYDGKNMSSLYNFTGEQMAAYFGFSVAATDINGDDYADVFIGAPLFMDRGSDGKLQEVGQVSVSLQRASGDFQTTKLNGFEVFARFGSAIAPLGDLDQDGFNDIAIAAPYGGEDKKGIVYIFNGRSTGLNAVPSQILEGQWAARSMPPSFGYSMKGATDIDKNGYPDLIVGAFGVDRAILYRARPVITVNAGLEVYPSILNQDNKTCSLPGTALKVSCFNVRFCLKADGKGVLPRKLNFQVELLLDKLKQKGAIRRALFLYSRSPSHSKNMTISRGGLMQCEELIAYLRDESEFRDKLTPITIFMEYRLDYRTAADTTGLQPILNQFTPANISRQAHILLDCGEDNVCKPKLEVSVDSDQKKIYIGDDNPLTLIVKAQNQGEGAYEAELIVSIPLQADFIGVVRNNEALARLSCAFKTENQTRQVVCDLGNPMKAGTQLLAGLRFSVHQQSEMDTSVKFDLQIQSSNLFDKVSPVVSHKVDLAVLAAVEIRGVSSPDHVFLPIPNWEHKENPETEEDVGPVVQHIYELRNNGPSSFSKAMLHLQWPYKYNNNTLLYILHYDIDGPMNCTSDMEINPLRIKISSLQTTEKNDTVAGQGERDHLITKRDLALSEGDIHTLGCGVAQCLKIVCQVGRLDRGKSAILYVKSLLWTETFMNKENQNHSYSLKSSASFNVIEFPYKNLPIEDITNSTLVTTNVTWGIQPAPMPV
T1 sequence (P26012 43-684, chain 2 of 2): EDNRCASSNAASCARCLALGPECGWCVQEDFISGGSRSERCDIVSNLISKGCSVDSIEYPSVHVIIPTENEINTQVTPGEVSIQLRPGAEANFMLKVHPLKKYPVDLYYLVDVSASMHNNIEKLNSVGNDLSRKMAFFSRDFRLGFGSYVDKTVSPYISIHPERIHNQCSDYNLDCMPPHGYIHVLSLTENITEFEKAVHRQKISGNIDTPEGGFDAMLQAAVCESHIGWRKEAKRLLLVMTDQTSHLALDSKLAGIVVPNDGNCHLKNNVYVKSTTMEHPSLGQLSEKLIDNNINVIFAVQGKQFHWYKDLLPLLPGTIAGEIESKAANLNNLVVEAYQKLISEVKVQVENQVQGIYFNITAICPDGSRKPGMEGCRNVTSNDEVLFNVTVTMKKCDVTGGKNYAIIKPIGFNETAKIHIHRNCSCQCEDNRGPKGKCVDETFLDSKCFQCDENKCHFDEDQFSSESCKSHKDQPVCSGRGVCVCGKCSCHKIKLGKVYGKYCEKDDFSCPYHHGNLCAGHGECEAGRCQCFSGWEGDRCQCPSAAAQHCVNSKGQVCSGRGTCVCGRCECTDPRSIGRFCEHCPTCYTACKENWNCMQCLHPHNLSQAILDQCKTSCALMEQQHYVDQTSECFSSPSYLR

B1: huAb1 (antibody, V domains shown)
VH: QIQLVQSGSELKKPGASVKVSCKASGYTFTKYSMHWVRQAPGQGLEWMARINTETGNPTYADGFRGRFVVSLDTSVSTAYLQISSLKAEDTAVYYCAIFYYGRDTWGQGTTVTVSS
VL: DIVMTQSPDSLAVSLGERATINCKSSQSLLHSRSRKNYLAWYQQKPGQPPKLLIYWASTRESGVPDRFSGSGSGTDFTLTISSLQAEDVAVYYCKQSYNLLSFGQGTKLEIK
notes: also called anti-αvβ8 antibody
What is called Kd is the concentration at which binding is half-saturated. High values mean a looser complex, low ones a tighter complex. In general, IC50 refers to the midpoint of a concentration-inhibition curve. A lower IC50 goes with inhibition by little substance. As for B1, the dissociation constant Kd with integrin αVβ8 (human) and in the test with integrin αVβ8 (murine) was less than 5 nM each time. For the same molecule, the “IC50 (read off the curve)” value in test [1] was approximately 4 nM. The IC50 in test [2] was less than 5 nM.

B2: muAb1 (antibody, V domains shown)
VH: QIQLVQSGSELKKPGASVKVSCKASGYTFTKYSMHWVRQAPGQGLEWMARINTETGNPTYADGFRGRFVVSLDTSVSTAYLQISSLKAEDTAVYYCAIFYYGRDTWGQGTTVTVSS
VL: DIVMTQSPDSLAVSLGERATINCKSSQSLLHSRSRKNYLAWYQQKPGQPPKLLIYWASTRESGVPDRFSGSGSGTDFTLTISSLQAEDVAVYYCKQSYNLLSFGQGTKLEIK
notes: also called murine-human hybrid monoclonal anti-αVβ8 antibody; murine compatible version of huAb1
For the molecule B2, the dissociation constant Kd with integrin αVβ8 (human) and with integrin αVβ8 (murine) was less than 15 nM each time. Further, the “IC50 (read off the curve)” value in test [1] was approximately 1 nM. In test [2], this molecule registered an IC50 of less than 5 nM.
